In US20190359687A1 (Bayer, published 2019):
Where a chain is given by its changes, count along the chain named. Numbers in names are those of the source.

B1: 7G4E9/A8 (antibody, V domains shown)
VH: QVQLKESGPGLVAPSQSLSITCTVSGFSLTRFGISWVRQPPGKGLEWMGVIWGDGSTDYHSALISRLSITKDNSKSQVFFRLNSLQSDDSATYYCARSFGMDYWGQGTSVTVSS
VL: NIMMTQSPSSLAVSAGEKVTMSCKSSQSILNSSNQKNYLAWYQQKPGQSPKLLIYWASTRESGVPDRFTGSGSGTDFTLTISSVQAEDLAVYYCHQYFSSRTFGGGTKLEIK
notes: as m8
B2: TPP-4935 (Fab, V domains shown)
VH: EVQLVQSGAEVKKPGASVKVSCKASGYTFTTYTIHWVRQAPGQGLEWIGYINPSSDYTRYNPKFKDRVTLTTDKSTSTAYMELRSLRSDDTAVYYCQTGTRDYWGQGTTVTVSS
VL: DIQLTQSPSFLSASVGDRVTITCSAASSVSYIYWFQQKPGKAPKLLIYSTSTLPSGVPSRFSGSGSGTEYTLTISSLQPEDFATYYCHQRNSFPFTFGQGTKLEIKR
notes: also called Parental; hu6C12-24 parental Fab
B3: TPP-5341 (Fab, V domains shown)
VH: B2 VH
VL: B2 VL with A26S
notes: also called VL: (A26S)
B4: TPP-5340 (Fab, V domains shown)
VH: B2 VH
VL: B2 VL with S24R
notes: also called VL: (S24R)
B5: TPP-7794, affinity matured 6C12 Fab (Fab, V domains shown)
VH: B2 VH with T33A, I48M, D56G, D66H, L70M, T72R, Q97W
VL: DIQLTQSPSFLSASVGDRVTITCRASSSVRYIYWFQQKPGKAPKLLIYATSFRQSGVPSRFSGSGSGTEYTLTISSLQPEDFATYYCHQRNSFPYTFGQGTKLEIK
notes: Tested as Fab
B6: TPP-7797, affinity matured 6C12 Fab (Fab, V domains shown)
VH: B2 VH with I48M, D56G, D66G, L70M, T72R, Q97W, T100R
VL: B5 VL
notes: Tested as Fab
B7: TPP-7783, affinity matured 6C12 Fab (Fab, V domains shown)
VH: B2 VH with T33A, I48M, D56G, D66H, L70M, T72R, Q97W
VL: B5 VL with Q54R
notes: Tested as Fab

Assays:
[1] = molecular target: T1, purified human glycophorin A protein (Sigma, cat # G5017) (human, UniProt P02724 20-150); test: ELISA, hGPA
T1 construct: mature; also called Sigma hGPA; Sigma GPA
T1 sequence (looked up): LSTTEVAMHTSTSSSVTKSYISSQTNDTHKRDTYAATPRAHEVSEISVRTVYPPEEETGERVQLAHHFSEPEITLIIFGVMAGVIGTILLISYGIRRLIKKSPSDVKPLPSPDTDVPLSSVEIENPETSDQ

[2] = molecular target: T2, human glycophorin A in the red blood cell membrane (human, UniProt P02724 20-150); test: FACS, hu RBC
T2 construct: whole, on cells; used for intact RBC, isolated RBC membranes and transfected cells; the assay field tells which; also called GPA; hGPA
T2 sequence (looked up): T1 sequence (looked up)
Description: (§1) Hybridomas were generated from the spleen cells of these mice and these hybriomas were screened first by fluorescence activated cell sorting (FACS) against isolated human and monkey (Cynomolgus monkey and Rhesus monkey) red blood cells (RBC) and then by ELISA against purified human glycophorin A protein (GPA). Isolated RBC were prepared from whole blood from normal human, cynomolgus monkey, and beagle dog, were anticoagulant with sodium heparin (Bioreclamation). 2-3 mL of whole blood was loaded gently on the top of 3 mL Ficoll Plus (Sigma Aldrich) then centrifuged at 500 g for 20 min at room temperature (RT). The RBC pellets were washed 3 times with 10 mL of PBS, and centrifuge 400 g for 10 min at RT. RBC pellets were re-suspended in PBS at the same total volume as the original blood volume to achieve the same RBC cell density as in whole blood and stored at 4° C. Purified human glycophorin A protein was obtained from Sigma Aldrich and coated on ELISA plates at 2 ug/ml. Binding of antibodies to human GPA was detected using appropriate secondary antibodies using methods well known in the art.

[3] = molecular target: T3, dog red blood cells (dog); test: FACS, dog RBC
T3 construct: also called dog RBC
Description: as §1

[4] = molecular target: T4, Cynomolgus monkey glycophorin A on Cynomolgus monkey red blood cells (Cynomolgus monkey); test: FACS, Cyno RBC
T4 construct: whole, on cells; also called Cyno RBC; Cyno GPA
Description: as §1

[5] = molecular target: T1, purified human glycophorin A protein …; test: ELISA, purified IgG
Description: The “Sigma GPA” is a crude preparation of human GPA extracted from human red blood cells and is therefore representative of the highly glycosylated form of the native protein.
EC 50 values were determined from a dilution curve of the antibody. Sigma GPA is partially purified GPA extracted from human red blood cells and purchased from Sigma Chemical Company (cat # G5017), asialo hGPA is human GPA that was desialylated and ECD is the recombinantly expressed ectodomain which is the extracellular portion of GPA.

[6] = molecular target: T5, recombinant human GPA ectodomain (human, UniProt P02724 20-91); test: SPR, IgG; SPR, IgG form, recombinant human GPA ectodomain
T5 construct: also called recombinant hGPA ECD; recGPA
T5 sequence: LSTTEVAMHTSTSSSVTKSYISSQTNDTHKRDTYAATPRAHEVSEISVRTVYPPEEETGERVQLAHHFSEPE

[7] = molecular target: T1, purified human glycophorin A protein …; test: ELISA, native hGPA
[8] = molecular target: T2, human glycophorin A in the red blood …; test: ELISA, human RBC membranes;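 further: antibodies bound to isolated human red blood cell membrane ghosts coated on 96-well plates, tested 1.5 h at room temperature, bound antibody quantified with a detection antibody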
Description: In order to evaluate binding of antibodies to GPA in the native context of the red blood cell membrane we made use of isolated red blood cell membranes, also called red blood cells ghosts. These membranes are prepared by first isolating red blood cells from citrated whole blood. Citrated whole blood is layered on to Ficol and centrifuged at low speed for 20 minutes to pellet the red blood cells. The supernatant containing plasma and other blood cells is discarded and the red blood cell pellet is subsequently washed 3 times in 10 cell volumes of phosphate buffered saline (PBS). A 10 ml pellet of purified red blood cells is resuspended in 30 ml of cold low osmorality 20 mM phosphate buffer (pH7.4) and incubated for 30 mins to break open the RBC. After Centrifugation at 10,000 rpm for 30 min at 5° C. the hemoglobin containing supernatant is discarded. To the membrane pellet another 30 ml of 20 mM phosphate buffer is added and the sample centrifuged again at 10,000 rpm for 30 min at 5° C. to pellet the membrane fraction. This wash and centrifugation step is repeated another 4 times. The red blood cell membranes are then resuspended in 20 mL of PBS to achieve an equivalent of approximately 2.5E9 cells/mL and stored frozen at −20° C. Binding of antibodies to RBC ghost can be measured by ELISA in which the RBC ghost suspension (5×10⁶ in 100 ul PBS) was added to each well of flat bottom 96-well ELISA microtiter plates (2HB, Immunolon) and the plates incubated overnight at 4° C. The plates were blocked with Starting blocking buffer (Thermo Fisher) for 2 hours at room temperature (RT). Antibodies or other test molecules were added to each well and incubated for 1.5 hours at RT. After 4 washes 100 ul of an appropriate detection antibody was added to each well and incubated for 1 hour at RT. After 4 washes the detection antibody was measured using appropriate detection reagents.

[9] = molecular target: T2, human glycophorin A in the red blood …; test: SPR single cycle kinetics, human RBC membranes on L1 sensor; single cycle kinetics, FIG. 6
Description: (§2) Kinetic analysis of the antibody binding to human red blood cell membranes was also performed using surface plasmon resonance (SPR) using a Biacore instrument. In this assay membranes prepared from human red blood cells were attached to a L1 sensor matrix and antibodies were flowed over the RBC membranes.

[10] = molecular target: T5, recombinant human GPA ectodomain; test: ELISA, rec hGPA ectodomain
[11] = molecular target: T6, Cynomolgus monkey glycophorin A on Cynomolgus monkey red blood cells or red blood cell membranes (Cynomolgus monkey); test: Fab 7 ug/ml on intact cyno RBC, unbound Fab by ELISA; pre-dilution
T6 construct: whole, on cells; also called Cyno RBC; Cynomolgus monkey RBC membranes

[12] = molecular target: T7, human glycophorin A on human red blood cells or red blood cell membranes (human, UniProt P02724 20-150); test: Fab 7 ug/ml on intact human RBC, unbound Fab by ELISA; pre-dilution
T7 construct: whole, on cells; also called hRBC; human RBC membranes
T7 sequence (looked up): T1 sequence (looked up)

[13] = molecular target: T7, human glycophorin A on human red blood …; test: SPR (Biacore), Fab on human RBC membranes; T½ = 0.69/kd; * not accurate;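 on kon: human RBC membranes captured on an L1 sensor chip, Fab fragments passed over as analyte, binding kinetics read by surface plasmon resonance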
Description: as §2
(§3) The binding kinetics of the affinity matured Fab antibodies was also measured.

[14] = molecular target: T7, human glycophorin A on human red blood …; test: SPR (Biacore), Fab on human RBC membranes; * not accurate, instrument limit
Description: as §2, §3

[15] = molecular target: T6, Cynomolgus monkey glycophorin A on …; test: Fab on intact cyno RBC, unbound Fab by ELISA; 0 min after 200-fold dilution
[16] = molecular target: T6, Cynomolgus monkey glycophorin A on …; test: Fab on intact cyno RBC, unbound Fab by ELISA; 5 min after 200-fold dilution
Description: (§4) The binding of affinity matured Fab antibodies to intact Cynomolgus monkey RBC was measured. Cynomolgus monkey RBC were isolated from fresh anti-coagulated blood by centrifugation through a ficol gradient and washing in PBS buffer. RBC diluted to 1/10th of normal hematocrit were incubated with the Fab at a final concentration of 7 ug/ml for 1 hour at room temperature on a rotating shaker after which a sample was taken and the RBC were pelleted by centrifugation and the supernatant was collected. The remaining RBC suspension was diluted 200-fold in PBS buffer and incubated for a total of 2 hours at room temperature on a rotating shaker and samples were removed at 0, 5 min, 20 min, 1 h and 2 h and the RBC pelleted and the supernatant collected. […] The amount of Fab in the supernatants was then measured using an ELISA assay and the results used to calculate the percentage of the input Fab that was bound to the RBC.

[17] = molecular target: T7, human glycophorin A on human red blood …; test: Fab on intact human RBC, unbound Fab by ELISA; 0 min after 200-fold dilution
Description: (§5) The binding of affinity matured Fab antibodies to intact human RBC was also measured. Human RBC were isolated from fresh anti-coagulated normal human blood by centrifugation through a ficol gradient and washing in PBS buffer. RBC diluted to 1/10th of normal hematocrit were incubated with purified Fab antibodies at a final concentration of 7 ug/ml for 1 hour at room temperature on a rotating shaker after which a sample was taken and the RBC were pelleted by centrifugation and the supernatant was collected. The remaining RBC suspension was diluted 200-fold in PBS buffer and incubated for a total of 2 hours at room temperature on a rotating shaker and samples were removed at 0, 5 min, 20 min, 1 h and 2 h and the RBC pelleted and the supernatant collected. The amount of Fab in the supernatants was then measured using an ELISA assay and the results used to calculate the percentage of the input Fab that was bound to the RBC. […] The percentage that remains bound after 200-fold dilution of the RBC suspension is an indication of the overall strength of the binding to human RBC.

[18] = molecular target: T7, human glycophorin A on human red blood …; test: Fab on intact human RBC, unbound Fab by ELISA; 5 min after 200-fold dilution
[19] = molecular target: T6, Cynomolgus monkey glycophorin A on …; test: Fab on intact cyno RBC, unbound Fab by ELISA; 20 min after 200-fold dilution
[20] = molecular target: T6, Cynomolgus monkey glycophorin A on …; test: Fab on intact cyno RBC, unbound Fab by ELISA; 60 min after 200-fold dilution
Description: as §4

[21] = molecular target: T7, human glycophorin A on human red blood …; test: Fab on intact human RBC, unbound Fab by ELISA; 20 min after 200-fold dilution
Description: as §5

[22] = molecular target: T7, human glycophorin A on human red blood …; test: Fab on intact human RBC, unbound Fab by ELISA; 60 min after 200-fold dilution
[23] = molecular target: T6, Cynomolgus monkey glycophorin A on …; test: Fab on intact cyno RBC, unbound Fab by ELISA; 120 min after 200-fold dilution
[24] = molecular target: T7, human glycophorin A on human red blood …; test: Fab on intact human RBC, unbound Fab by ELISA; 120 min after 200-fold dilution
Description: as §5

[25] = molecular target: T7, human glycophorin A on human red blood …; test: SPR (Biacore), Fab on human RBC membranes;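 further: human RBC membranes captured on an L1 sensor chip, Fab fragments passed over as analyte, binding kinetics read by surface plasmon resonance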
Description: as §2, §3

Binder | binding by ELISA relative to parental [7] | binding by ELISA relative to parental [8] | Kd [9] [nM] | percentage of input antibody bound [11] [%] | percentage of input antibody bound [12] [%] | Estimated T½ [13] [days] | Kd [14] [nM] | koff [14] [s⁻¹] | percentage of input antibody bound [15] [%] | percentage of input antibody bound [16] [%] | percentage of input antibody bound [17] [%] | percentage of input antibody bound [18] [%] | percentage of input antibody bound [19] [%] | percentage of input antibody bound [20] [%] | percentage of input antibody bound [21] [%] | percentage of input antibody bound [22] [%] | percentage of input antibody bound [23] [%] | percentage of input antibody bound [24] [%] | also measured
B1 | – | – | – | – | – | – | – | – | – | – | – | – | – | – | – | – | – | – | EC50 [1]: 0.071 nM; FACS signal [2]: 2830 relative flourescence units; FACS signal [3]: 0.98 relative flourescence units; FACS signal [4]: 8 relative flourescence units; EC50 [5]: 0.33 nM; Kd [6]: 5.92 nM; koff [6]: 0.00046 s⁻¹; kon [6]: 77700 M⁻¹ s⁻¹; t½ [6]: 0.0174 days
B2 | 1 | 0.99 | 130 | – | – | – | – | – | – | – | – | – | – | – | – | – | – | – | –
B3 | 1.03 | 0.82 | 34 | – | – | – | – | – | – | – | – | – | – | – | – | – | – | – | binding by ELISA relative to parental [10]: 1.19
B4 | 1.17 | 0.9 | 25 | – | – | – | – | – | – | – | – | – | – | – | – | – | – | – | binding by ELISA relative to parental [10]: 1.23
B5 | – | – | – | 73 | 93 | 922 | < 0.01 | < 2e-05 | 67 | 66 | 92 | 91 | 65 | 67 | 90 | 90 | 57 | 90 | kon [14]: 2.22e+07 M⁻¹ s⁻¹
B6 | – | – | – | 79 | 97 | 0.487 | 0.000253 | 1.64e-05 | 81 | 66 | 96 | 95 | 59 | 56 | 94 | 94 | 50 | 92 | kon [14]: 6.49e+07 M⁻¹ s⁻¹
B7 | – | – | – | 72 | 90 | 33 | 0.000904 | 2.42e-07 | 60 | 62 | 87 | 86 | 62 | 64 | 86 | 84 | 56 | 85 | kon [25]: 267000 M⁻¹ s⁻¹
